What was measured:
Assay in all cases: GST-WRKY pull-down of BIK1-HA from leaf extract
Details in all cases: reference: wild type BIK1; sites S89,T90
WRKY50 = WRKY50 (UniProt Q8VWQ5)
WRKY57 = WRKY57 (UniProt Q9C983)
WRKY33 = WRKY33 (UniProt Q8S8P5)

Measured: binding against the reference

BIK1 (Botrytis-induced kinase 1) (from UniProt O48814) S89A/T90A
stronger: all assays above
